We go through three molecules from article PMC3032553, “Structural Basis for c-di-GMP-Mediated Inside-Out Signaling Controlling Periplasmic Proteolysis” (PLoS Biology, 2011).

Data set [1] concerns the molecule itself. Nature of the data set: SEC-MALS; protein incubated with 500 µM c-di-GMP for 30 min at room temperature before SEC, no c-di-GMP in the mobile phase; 20-320 µM injected protein; 25 mM Tris-HCl pH 8.4, 250 mM NaCl; 25°C.
The target in a further data set is T1, His6-tagged LapG (P. fluorescens).
T1 chain: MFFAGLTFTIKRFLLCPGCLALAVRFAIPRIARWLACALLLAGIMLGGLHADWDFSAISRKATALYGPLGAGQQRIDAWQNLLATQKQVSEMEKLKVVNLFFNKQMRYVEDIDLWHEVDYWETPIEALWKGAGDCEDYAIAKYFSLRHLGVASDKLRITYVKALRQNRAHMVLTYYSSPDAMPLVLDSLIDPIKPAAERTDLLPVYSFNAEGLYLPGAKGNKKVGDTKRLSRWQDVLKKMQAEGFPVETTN
Nature of the data set: pull-down; His6-LapG bound to NiNTA resin, untagged LapD output domain variants added, 1 h at 4°C; 25 mM Tris-HCl pH 8.4, 75 mM NaCl, 25 mM KCl, 40 mM imidazole; eluates on SDS-PAGE (Coomassie; SYPRO Ruby for quantification). To be noted: both partners purified.

Data set [2] deals with the molecule itself. Nature of the data set: crystal structure; LapD^output, selenomethionine-derivatized, 1.8 Å, two molecules per asymmetric unit.

B1: LapD^dual E262A (domain or fragment, P. fluorescens Pf0-1, UniProt Q3KK31 220-648, looked up)
chain: ALFQEQAERSEKLRTESYQDNLTGLANRRYFEMQLNARVSNPAQASSGYLLLLRVKDLAGLNQRLGGQRTDELLKAVGEQLSRECAKYPETQNLVTRIRGGEFAVLAPGMTREEALQLAQSLDSALSSLYATGATDVAAVASIGLAPFAHGDSPQAVLSLGDQALAQAEGQGEQNWACLDQSLVADVGDDHHAWHRLLDQALNQRRFELFFQPVVAAQDTQLVLHYKVLSRLLDEQGQTIPAGRFLPWLERFGWTARLDRLMLERVLEQMAGHEESLALNLSSATLADPQALNKVFEILRAHSNLGARLTLEIGEEQLPEQAVLEQLTRRLRELGFSLSLQRFGGRFSMIGNLARLGLAYLKIDGSYIRAIDQESDKRLFIEAIQRAAHSIDLPLIAERVETEGELSVIREMGLYGVQGQLFGEPKPWG
notes: LapD, P. fluorescens Pf0-1, residues 220-648, mutation E262A in the GGDEF domain; also called GGDEF-EAL interface mutant; source: produced following standard molecular biology and liquid chromatography techniques, purified (protocols in Text S1)
B1: in data set [1], the binding result is given as “binds”.

B2: LapD^EAL, wild-type (EAL domain of LapD, residues 399-648) (domain or fragment, P. fluorescens Pf0-1, UniProt Q3KK31 399-648, looked up)
chain: DQSLVADVGDDHHAWHRLLDQALNQRRFELFFQPVVAAQDTQLVLHYKVLSRLLDEQGQTIPAGRFLPWLERFGWTARLDRLMLERVLEQMAGHEESLALNLSSATLADPQALNKVFEILRAHSNLGARLTLEIGEEQLPEQAVLEQLTRRLRELGFSLSLQRFGGRFSMIGNLARLGLAYLKIDGSYIRAIDQESDKRLFIEAIQRAAHSIDLPLIAERVETEGELSVIREMGLYGVQGQLFGEPKPWG
notes: LapD, P. fluorescens Pf0-1, residues 399-648 (degenerate EAL domain); also called isolated EAL domain; LapD^EAL•c-di-GMP; source: produced following standard molecular biology and liquid chromatography techniques, purified (protocols in Text S1)
As to B2, the binding result in data set [1] was “binds”.

B3: LapD^output, wild-type (periplasmic output domain of LapD, residues 22-151) (domain or fragment, P. fluorescens Pf0-1, UniProt Q3KK31 22-151, looked up)
chain: SFMVSLESSRTQYVNQLRSHAQDAATALALSLTPNIDDPAMVELLVSSIFDSGYYSSIRVVDLKTDQTIVERNGIPAVTNVPDWFVKLIGLEPAGGDALVSRGWEQAARVEVVSHPMFALAKLWQSALGS
notes: LapD, P. fluorescens Pf0-1, residues 22-151 (periplasmic output domain); untagged in the pull-down; domain-swapped dimer in the crystal; The crystals were grown with selenomethionine-derivatized protein; the final model spans residues 23-150; also called periplasmic domain of LapD; source: produced following standard molecular biology and liquid chromatography techniques, purified (protocols in …)
B3: in the data set with His6-tagged LapG, the “stoichiometry N” value was 2 LapG molecules per output domain dimer. Further, in data set [2], the binding result is “binds”.
